T1: recombinant mouse FcRn (mouse, UniProt Q61559 22-297; P01887 21-119, limits assumed)
T1 construct: also called mFcRn
T1 sequence (looked up) 1: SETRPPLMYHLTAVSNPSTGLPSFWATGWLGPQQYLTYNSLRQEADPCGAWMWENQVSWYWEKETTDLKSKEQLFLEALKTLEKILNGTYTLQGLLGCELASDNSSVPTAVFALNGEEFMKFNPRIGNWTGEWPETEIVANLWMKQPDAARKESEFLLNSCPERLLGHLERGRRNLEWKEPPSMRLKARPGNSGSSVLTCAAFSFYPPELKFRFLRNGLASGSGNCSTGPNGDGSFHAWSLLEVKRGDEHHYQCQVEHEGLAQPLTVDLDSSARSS
T1 sequence (looked up) 2: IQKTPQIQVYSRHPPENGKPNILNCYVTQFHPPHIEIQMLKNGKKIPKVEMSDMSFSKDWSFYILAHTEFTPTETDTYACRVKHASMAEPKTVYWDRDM


How the values were obtained:
[1] = molecular target: human von Willebrand Factor (human) (UniProt P04275); assay: Biacore SPR, human vWF immobilized on a CM-5 chip by amine coupling, full-length recombinant FVIII passed over as analyte
[2] = molecular target: T2, human von Willebrand Factor (human, UniProt P04275 764-2813); assay: Biacore SPR, human vWF immobilized on a CM-5 chip by amine coupling, BDD passed over as analyte
T2 construct: also called vWF; vWf
Method: (§1) Human vWF was immobilized onto a CM-5 chip by amine coupling. Two Factor VIII heterodimers (BDDFc+hinge and BDDFc−hinge), BDD (the Factor VIII protein from which BDDFc+hinge and BDDFc−hinge are derived), and full-length recombinant Factor VIII were passed over the surface of the chip at various concentrations (e.g., 1, 2, 4, 8, 16, and 25 nM).

[3] = molecular target: T1, recombinant mouse FcRn; assay: Biacore, mFcRn immobilized on CM-5 chip
From the text: The following example describes functional studies performed using the Biacore™ system to determine whether an FcRn binding epitope retains it ability to bind to FnRn when incorporated in a Factor VIII fusion heterodimer. For use in the Biacore™ test, recombinant mouse FcRn (mFcRn) protein was expressed in CHO-K1 cells and purified by mouse IgG-affinity chromatography. Mouse FcRn was immobilized onto a CM-5 chip by amine coupling. Two Factor VIII heterodimers (BDDFc+hinge and BDDFc−hinge), BDD (the Factor VIII protein from which BDDFc+hinge and BDDFc−hinge are derived), and full-length recombinant Factor VIII were passed over the surface of the chip at various concentrations (e.g., 1.5, 3, 6, 12, 25, and 50 nM). Binding of BDDFc±hinge Factor VIII fusion heterodimers to immobilized mFcRn was detected (FIG. 13).

[4] = molecular target: T2, human von Willebrand Factor; assay: Biacore, human vWF immobilized on CM-5 chip
Method: as §1

| Kd [1] [nM] | Kd [2] [nM] | Kd [3] [nM] | Kd [4] [nM] | Molecule |
| --- | --- | --- | --- | --- |
| 0.657 | – | – | – | full-length recombinant Factor VIII (from UniProt P00451 20-2351) |
| – | 0.53 | – | – | B-domain deleted Factor VIII (BDD) (other, The protein circulates as a heavy chain and light chain heterodimer; also called BDD-FVIII; BDD Factor VIII) ATRRYYLGAVELSWDYMQSDLGELPVDARFPPRVPKSFPFNTSVVYKKTLFVEFTVHLFNIAKPRPPWMGLLGPTIQAEVYDTVVITLKNMASHPVSLHAVGVSYWKASEGAEYDDQTSQREKEDDKVFPGGSHTYVWQVLKENGPMASDPLCLTYSYLSHVDLVKDLNSGLIGALLVCREGSLAKEKTQTLHKFILLFAVFDEGKSWHSETKNSLMQDRDAASARAWPKMHTVNGYVNRSLPGLIGCHRKSVYWHVIGMGTTPEVHSIFLEGHTFLVRNHRQASLEISPITFLTAQTLLMDLGQFLLFCHISSHQHDGMEAYVKVDSCPEEPQLRMKNNEEAEDYDDDLTDSEMDVVRFDDDNSPSFIQIRSVAKKHPKTWVHYIAAEEEDWDYAPLVLAPDDRSYKSQYLNNGPQRIGRKYKKVRFMAYTDETFKTREAIQHESGILGPLLYGEVGDTLLIIFKNQASRPYNIYPHGITDVRPLYSRRLPKGVKHLKDFPILPGEIFKYKWTVTVEDGPTKSDPRCLTRYYSSFVNMERDLASGLIGPLLICYKESVDQRGNQIMSDKRNVILFSVFDENRSWYLTENIQRFLPNPAGVQLEDPEFQASNIMHSINGYVFDSLQLSVCLHEVAYWYILSIGAQTDFLSVFFSGYTFKHKMVYEDTLTLFPFSGETVFMSMENPGLWILGCHNSDFRNRGMTALLKVSSCDKNTGDYYEDSYEDISAYLLSKNNAIEPRSFSQNPPVLKRHQREITRTTLQSDQEEIDYDDTISVEMKKEDFDIYDEDENQSPRSFQKKTRHYFIAAVERLWDYGMSSSPHVLRNRAQSGSVPQFKKVVFQEFTDGSFTQPLYRGELNEHLGLLGPYIRAEVEDNIMVTFRNQASRPYSFYSSLISYEEDQRQGAEPRKNFVKPNETKTYFWKVQHHMAPTKDEFDCKAWAYFSDVDLEKDVHSGLIGPLLVCHTNTLNPAHGRQVTVQEFALFFTIFDETKSWYFTENMERNCRAPCNIQMEDPTFKENYRFHAINGYIMDTLPGLVMAQDQRIRWYLLSMGSNENIHSIHFSGHVFTVRKKEEYKMALYNLYPGVFETVEMLPSKAGIWRVECLIGEHLHAGMSTLFLVYSNKCQTPLGMASGHIRDFQITASGQYGQWAPKLARLHYSGSINAWSTKEPFSWIKVDLLAPMIIHGIKTQGARQKFSSLYISQFIIMYSLDGKKWQTYRGNSTGTLMVFFGNVDSSGIKHNIFNPPIIARYIRLHPTHYSIRSTLRMELMGCDLNSCSMPLGMESKAISDAQITASSYFTNMFATWSPSKARLHLQGRSNAWRPQVNNPKEWLQVDFQKTMKVTGVTTQGVKSLLTSMYVKEFLISSSQDGHQWTLFFQNGKVKVFQGNQDSFTPVVNSLDPPLLTRYLRIHPQSWVHQIALRMEVLGCEAQDLY |
| – | – | 3.75 | 0.908 | BDDFc-hinge Factor VIII fusion heterodimer (Fc fusion, No signal peptide limits are stated on this entry; It is processed into a heavy chain-Fc chimera and a light chain; also called BDDmFc-hinge expression product; FVIII-Fc) ATRRYYLGAVELSWDYMQSDLGELPVDARFPPRVPKSFPFNTSVVYKKTLFVEFTDHLFNIAKPRPPWMGLLGPTIQAEVYDTVVITLKNMASHPVSLHAVGVSYWKASEGAEYDDQTSQREKEDDKVFPGGSHTYVWQVLKENGPMASDPLCLTYSYLSHVDLVKDLNSGLIGALLVCREGSLAKEKTQTLHKFILLFAVFDEGKSWHSETKNSLMQDRDAASARAWPKMHTVNGYVNRSLPGLIGCHRKSVYWHVIGMGTTPEVHSIFLEGHTFLVRNHRQASLEISPITFLTAQTLLMDLGQFLLFCHISSHQHDGMEAYVKVDSCPEEPQLRMKNNEEAEDYDDDLTDSEMDVVRFDDDNSPSFIQIRSVAKKHPKTWVHYIAAEEEDWDYAPLVLAPDDRSYKSQYLNNGPQRIGRKYKKVRFMAYTDETFKTREAIQHESGILGPLLYGEVGDTLLIIFKNQASRPYNIYPHGITDVRPLYSRRLPKGVKHLKDFPILPGEIFKYKWTVTVEDGPTKSDPRCLTRYYSSFVNMERDLASGLIGPLLICYKESVDQRGNQIMSDKRNVILFSVFDENRSWYLTENIQRFLPNPAGVQLEDPEFQASNIMHSINGYVFDSLQLSVCLHEVAYWYILSIGAQTDFLSVFFSGYTFKHKMVYEDTLTLFPFSGETVFMSMENPGLWILGCHNSDFRNRGMTALLKVSSCDKNTGDYYEDSYEDISAYLLSKNNAIEPRSFSQNVPEVSSVFIFPPKPKDVLTITLTPKVTCVVVDISKDDPEVQFSWFVDDVEVHTAQTQPREEQFNSTFRSVSELPIMHQDWLNGKEFKCRVNSAAFPAPIEKTISKTKGRPKAPQVYTIPPPKEQMAKDKVSLTCMITDFFPEDITVEWQWNGQPAENYKNTQPIMDTDGSYFVYSKLNVQKSNWEAGNTFTCSVLHEGLHNHHTEKSLSHSPGKSQNPPVLKRHQREITRTTLQSDQEEIDYDDTISVEMKKEDFDIYDEDENQSPRSFQKKTRHYFIAAVERLWDYGMSSSPHVLRNRAQSGSVPQFKKVVFQEFTDGSFTQPLYRGELNEHLGLLGPYIRAEVEDNIMVTFRNQASRPYSFYSSLISYEEDQRQGAEPRKNFVKPNETKTYFWKVQHHMAPTKDEFDCKAWAYFSDVDLEKDVHSGLIGPLLVCHTNTLNPAHGRQVTVQEFALFFTIFDETKSWYFTENMERNCRAPCNIQMEDPTFKENYRFHAINGYIMDTLPGLVMAQDQRIRWYLLSMGSNENIHSIHFSGHVFTVRKKEEYKMALYNLYPGVFETVEMLPSKAGIWRVECLIGEHLHAGMSTLFLVYSNKCQTPLGMASGHIRDFQITASGQYGQWAPKLARLHYSGSINAWSTKEPFSWIKVDLLAPMIIHGIKTQGARQKFSSLYISQFIIMYSLDGKKWQTYRGNSTGTLMVFFGNVDSSGIKHNIFNPPIIARYIRLHPTHYSIRSTLRMELMGCDLNSCSMPLGMESKAISDAQITASSYFTNMFATWSPSKARLHLQGRSNAWRPQVNNPKEWLQVDFQKTMKVTGVTTQGVKSLLTSMYVKEFLISSSQDGHQWTLFFQNGKVKVFQGNQDSFTPVVNSLDPPLLTRYLRIHPQSWVHQIALRMEVLGCEAQDLY |
| – | – | 2.48 | 0.465 | BDDFc+hinge Factor VIII fusion heterodimer (Fc fusion, also called BDDmFc+hinge expression product) ATRRYYLGAVELSWDYMQSDLGELPVDARFPPRVPKSFPFNTSVVYKKTLFVEFTDHLFNIAKPRPPWMGLLGPTIQAEVYDTVVITLKNMASHPVSLHAVGVSYWKASEGAEYDDQTSQREKEDDKVFPGGSHTYVWQVLKENGPMASDPLCLTYSYLSHVDLVKDLNSGLIGALLVCREGSLAKEKTQTLHKFILLFAVFDEGKSWHSETKNSLMQDRDAASARAWPKMHTVNGYVNRSLPGLIGCHRKSVYWHVIGMGTTPEVHSIFLEGHTFLVRNHRQASLEISPITFLTAQTLLMDLGQFLLFCHISSHQHDGMEAYVKVDSCPEEPQLRMKNNEEAEDYDDDLTDSEMDVVRFDDDNSPSFIQIRSVAKKHPKTWVHYIAAEEEDWDYAPLVLAPDDRSYKSQYLNNGPQRIGRKYKKVRFMAYTDETFKTREAIQHESGILGPLLYGEVGDTLLIIFKNQASRPYNIYPHGITDVRPLYSRRLPKGVKHLKDFPILPGEIFKYKWTVTVEDGPTKSDPRCLTRYYSSFVNMERDLASGLIGPLLICYKESVDQRGNQIMSDKRNVILFSVFDENRSWYLTENIQRFLPNPAGVQLEDPEFQASNIMHSINGYVFDSLQLSVCLHEVAYWYILSIGAQTDFLSVFFSGYTFKHKMVYEDTLTLFPFSGETVFMSMENPGLWILGCHNSDFRNRGMTALLKVSSCDKNTGDYYEDSYEDISAYLLSKNNAIEPRSFSQNVPRDCGCKPCICTVPEVSSVFIFPPKPKDVLTITLTPKVTCVVVDISKDDPEVQFSWFVDDVEVHTAQTQPREEQFNSTFRSVSELPIMHQDWLNGKEFKCRVNSAAFPAPIEKTISKTKGRPKAPQVYTIPPPKEQMAKDKVSLTCMITDFFPEDITVEWQWNGQPAENYKNTQPIMDTDGSYFVYSKLNVQKSNWEAGNTFTCSVLHEGLHNHHTEKSLSHSPGKSQNPPVLKRHQREITRTTLQSDQEEIDYDDTISVEMKKEDFDIYDEDENQSPRSFQKKTRHYFIAAVERLWDYGMSSSPHVLRNRAQSGSVPQFKKVVFQEFTDGSFTQPLYRGELNEHLGLLGPYIRAEVEDNIMVTFRNQASRPYSFYSSLISYEEDQRQGAEPRKNFVKPNETKTYFWKVQHHMAPTKDEFDCKAWAYFSDVDLEKDVHSGLIGPLLVCHTNTLNPAHGRQVTVQEFALFFTIFDETKSWYFTENMERNCRAPCNIQMEDPTFKENYRFHAINGYIMDTLPGLVMAQDQRIRWYLLSMGSNENIHSIHFSGHVFTVRKKEEYKMALYNLYPGVFETVEMLPSKAGIWRVECLIGEHLHAGMSTLFLVYSNKCQTPLGMASGHIRDFQITASGQYGQWAPKLARLHYSGSINAWSTKEPFSWIKVDLLAPMIIHGIKTQGARQKFSSLYISQFIIMYSLDGKKWQTYRGNSTGTLMVFFGNVDSSGIKHNIFNPPIIARYIRLHPTHYSIRSTLRMELMGCDLNSCSMPLGMESKAISDAQITASSYFTNMFATWSPSKARLHLQGRSNAWRPQVNNPKEWLQVDFQKTMKVTGVTTQGVKSLLTSMYVKEFLISSSQDGHQWTLFFQNGKVKVFQGNQDSFTPVVNSLDPPLLTRYLRIHPQSWVHQIALRMEVLGCEAQDLY |
